Measured values: patent US20190194358A1 (ARIZONA BOARD OF REGENTS A BODY CORPORATE OF THE STATE OF …, published 2019)
Like-named read-outs stand apart in the source and are kept apart here. Blank lines part the entries; values can stand above or below the binder they belong to.

What was measured:
[1] = target: T1, transferrin (human, UniProt P02787 20-698); assay: SPR (Biacore T100), transferrin immobilised, steady-state response
T1 construct: also called TRF; pooled human transferrin (Sigma)
Source text: Flow rates and contact times are adjusted as necessary to provide the surface concentration of target desired for the intended application, and may vary by target. In general, for evaluating whether binding occurs, it is preferable to immobilize a relatively large quantity of target, and higher flow rates and/or longer contact times may be used. For determining kinetics, it is preferable to limit the amount of target immobilized so as to minimize rebinding and avidity effects, and lower flow rates and/or contact times may be used.
Because the off rates for these polypeptides were very high, KD values were estimated by measuring steady-state response for at least five concentrations in a two-fold dilution series, each concentration tested in duplicate. For each experiment, response data were processed using a reference surface to correct for bulk refractive index changes and any non-specific binding. Data were also double referenced using responses from blank running buffer injections. […] Analytes were injected for 60 s at a flow rate of 30 μl/min. The antigen surfaces were regenerated with 30 s consecutive pulses of NaOH/NaCl (50 mM NaOH in 1M NaCl) and Glycine (10 mM glycine-HCl, pH 2.5).

[2] = target: T1, transferrin; assay: affinity characterisation of Example 29 (SPR; format for the purified peptides not stated)
[3] = target: T1, transferrin; assay: peptide microarray without organic prewash, Alexa 555 transferrin with Alexa 647 E. coli lysate; rank by the score of Example 2
[4] = target: T1, transferrin; assay: peptide microarray with organic prewash, Alexa 555 transferrin with Alexa 647 E. coli lysate; rank by the score of Example 2
[5] = target: T1, transferrin; assay: SPR (Biacore T100), transferrin immobilised (9758 RU), steady state affinity fit
Source text: Affinity plots were generated for each peptide and fit using a steady state affinity model.

[6] = target: T2, Gal80 (UniProt P04387 1-435, limits assumed); assay: light-directed peptide array, 25 µM labelled GAL80 with 1 mg/mL E. coli lysate; relative to template BP2;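 also: array read-out by fluorescence scanning, library of 10,000 peptides varied at four positions with ten residue choices, each feature present in triplicate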
T2 construct: Cy3/Cy5 labelled on arrays, immobilised for SPR and ELISA
T2 sequence (looked up): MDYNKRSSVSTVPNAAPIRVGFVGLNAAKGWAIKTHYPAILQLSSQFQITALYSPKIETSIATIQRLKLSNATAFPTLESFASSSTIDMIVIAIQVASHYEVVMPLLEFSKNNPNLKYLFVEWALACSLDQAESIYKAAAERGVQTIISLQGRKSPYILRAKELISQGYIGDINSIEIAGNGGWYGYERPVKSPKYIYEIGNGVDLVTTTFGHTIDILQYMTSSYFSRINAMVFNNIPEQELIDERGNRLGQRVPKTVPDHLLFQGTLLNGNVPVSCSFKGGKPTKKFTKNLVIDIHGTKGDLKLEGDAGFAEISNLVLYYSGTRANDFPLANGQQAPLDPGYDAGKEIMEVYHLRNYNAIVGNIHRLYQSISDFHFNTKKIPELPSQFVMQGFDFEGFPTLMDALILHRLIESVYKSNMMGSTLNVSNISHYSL
Source text: The chemically diverse set of 10 amino acids {I,D,W,L,E,G,T,S,K,R} were selected as the amino acids to substitute into the four variable positions for a total of 10,000 unique variant peptides. Three replicates were included in the array to produce a total of 30,000 array features. […] The resulting array was imaged using a commercial fluorescence scanner.

[7] = target: T3, Tumor Necrosis Factor-alpha (UniProt P01375 77-233); assay: SPR (Biacore A100), TNF-α captured, equilibrium response over a concentration series
T3 construct: Immobilised on pipette tips or SPR chips (amine coupling or biotin capture); also called TNF-α; TNF-alpha
T3 sequence (P01375 77-233 limits assumed): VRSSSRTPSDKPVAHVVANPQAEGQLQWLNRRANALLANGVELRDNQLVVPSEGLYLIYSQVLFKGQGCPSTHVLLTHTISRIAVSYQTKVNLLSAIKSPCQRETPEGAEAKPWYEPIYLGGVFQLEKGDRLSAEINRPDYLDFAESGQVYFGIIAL
Procedure: (§1) Point-mutant libraries were prepared in 96-well stock plates From the stock plate, peptides were diluted to 50 μM concentration in Biacore HBS-EP buffer (GE Healthcare, Piscataway, N.J.) containing 1 mg/ml carboxymethyl-dextran (Sigma-Aldrich, St. Louis, Mo.) to reduce non-specific binding to the CM-5 SPR chip surface. TNF-αt was captured on a CM-5 chip surface at different capture levels on spots 1, 2, 4, and 5 across all four flow cells corresponding to a 40-200 RU range of predicted Rₘₐₓ binding responses. Spot 3 contained only immobilized neutravidin and served as a reference spot.
(§2) Purified point-mutant affinities were measured on the Biacore A100 using SPR equilibrium binding response across a series of peptide concentrations on an SPR chip with TNF-α captured as described above.

[8] = target: T3, Tumor Necrosis Factor-alpha; assay: SPR; reference TNF1 lead peptide
Procedure: as §1, §2

[9] = target: T3, Tumor Necrosis Factor-alpha; assay: SPR (Biacore A100), TNF-α captured, equilibrium response over a concentration series; remark: listed apart in the source
Procedure: as §1, §2

[10] = target: T3, Tumor Necrosis Factor-alpha; assay: SPR; difference to the TNF1 lead peptide
Procedure: as §1, §2

[11] = target: T3, Tumor Necrosis Factor-alpha; assay: SPR (Biacore A100) point-mutant screen at 50 µM peptide
Procedure: as §1
Using the prepared 96-well plates and Biacore A100 SPR instrument, four peptides were flowed separately, in parallel, through the four flow cells over all 4 TNF-α spots and the neutravidin reference spot, with a 60 second association phase and 300 second dissociation phase. SPR sensorgrams were recorded for each peptide response with all 4 TNF-α spots and the neutravidin reference spot across the four flow cells on the SPR chip. Surface regeneration was performed after every 12 injections in each flow cell with Biacore Glycine 2.5 regeneration solution (GE Healthcare, Piscataway, N.J.). Point-mutant reference subtracted, peptide molecular weight adjusted, responses at the late binding region of the sensorgram (a few seconds before dissociation) were compared to the response of the TNF1 lead

[12] = target: T3, Tumor Necrosis Factor-alpha; assay: SPR; reference TNF1 lead peptide; remark: listed apart in the source
Procedure: as §1, §2

[13] = target: T2, Gal80; assay: SPR, gal80 immobilised on the chip; Kd from on and off rates

T1 sequence (P02787 20-698 limits assumed): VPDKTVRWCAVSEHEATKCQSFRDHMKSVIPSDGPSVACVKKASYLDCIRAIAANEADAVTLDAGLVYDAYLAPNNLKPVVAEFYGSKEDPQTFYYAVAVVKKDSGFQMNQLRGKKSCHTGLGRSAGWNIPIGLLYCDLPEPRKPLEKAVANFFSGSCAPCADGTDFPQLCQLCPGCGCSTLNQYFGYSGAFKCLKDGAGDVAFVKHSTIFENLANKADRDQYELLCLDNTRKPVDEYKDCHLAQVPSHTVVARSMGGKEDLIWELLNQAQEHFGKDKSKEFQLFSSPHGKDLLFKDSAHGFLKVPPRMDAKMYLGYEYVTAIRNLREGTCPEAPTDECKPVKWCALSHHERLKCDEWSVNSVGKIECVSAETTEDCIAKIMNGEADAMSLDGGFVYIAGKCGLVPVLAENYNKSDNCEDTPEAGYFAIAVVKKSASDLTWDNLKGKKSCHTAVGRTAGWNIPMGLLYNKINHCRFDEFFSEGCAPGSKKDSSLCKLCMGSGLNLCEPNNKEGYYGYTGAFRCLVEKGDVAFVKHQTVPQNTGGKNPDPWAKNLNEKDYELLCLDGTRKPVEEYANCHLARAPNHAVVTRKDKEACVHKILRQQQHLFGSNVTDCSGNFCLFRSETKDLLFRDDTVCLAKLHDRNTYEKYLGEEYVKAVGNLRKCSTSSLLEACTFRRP

- Kd [5]: 150 µM
B3: TBPL005 (peptide)
peptide: GHKVVPQRQIRHAYNRYGSC
notes: Clone from mRNA display on a doped TRF26 library; synthesised and HPLC purified

- Kd [1]: ~50 µM
- Rank - non-prewash [3]: 71 rank
- Rank -- prewash [4]: 958 rank
Binder: SVKPWRPLITGNRWLNSGSC (20-mer ending GSC) [TRF24]

- Fold Enhancement [6]: 10.4 fold
B6: BP2 variant EGEWTEGKKSKIGSC (peptide)
peptide: EGEWTEGKKSKIGSC
notes: Synthesised in situ on a light-directed array

- Fold Enhancement [6]: 10.5 fold
B7: BP2 variant EGEWTEGKKSKTGSC (peptide)
peptide: EGEWTEGKKSKTGSC
notes: as for B6

- Fold Enhancement [6]: 10.8 fold
B9: BP2 variant EGEDTEGKKSKGGSC (peptide)
peptide: EGEDTEGKKSKGGSC
notes: as for B6

- Fold Enhancement [6]: 10.7 fold
B12: BP2 variant EGEWTEGKKSKLGSC (peptide)
peptide: EGEWTEGKKSKLGSC
notes: as for B6

- Fold Enhancement [6]: 8.5 fold
B15: BP2 variant EGEKTEGKKSKTGSC (peptide)
peptide: EGEKTEGKKSKTGSC
notes: as for B6

- Fold Enhancement [6]: 10.4 fold
B18: BP2 variant EGEDTEGKKSKIGSC (peptide)
peptide: EGEDTEGKKSKIGSC
notes: as for B6

- Fold Enhancement [6]: 11 fold
B19: BP2 variant EGEWTEGKKSKRGSC (peptide)
peptide: EGEWTEGKKSKRGSC
notes: as for B6

- Fold Enhancement [6]: 10.6 fold
B21: BP2 variant EGEITEGKKSKTGSC (peptide)
peptide: EGEITEGKKSKTGSC
notes: as for B6

- Fold Enhancement [6]: 10.2 fold
B22: BP2 variant EGEDTEGKKSKTGSC (peptide)
peptide: EGEDTEGKKSKTGSC
notes: as for B6

- Fold Enhancement [6]: 9.81 fold
B24: BP2 variant EGEKTEGKKSKLGSC (peptide)
peptide: EGEKTEGKKSKLGSC
notes: as for B6

- Fold Enhancement [6]: 9.91 fold
B25: BP2 variant EGEITEGKKSKSGSC (peptide)
peptide: EGEITEGKKSKSGSC
notes: as for B6

- Fold Enhancement [6]: 9.72 fold
Binder: EGEITEGKLSKKGSC [BP2 variant EGEITEGKLSKKGSC]

- Kd [1]: ~60 µM
- Rank - non-prewash [3]: 736 rank
- Rank -- prewash [4]: 603 rank
Binder: APYAPQQIHYWSTLGFKGSC (20-mer ending GSC) [TRF25]

- Rank - non-prewash [3]: 1290 rank
- Rank -- prewash [4]: 3320 rank
Binder: LDPLFNTSIMVNWHRWMGSC [TRF27]

The next lines start with the binder.

B1: TRF26 (peptide)
peptide: AHKVVPQRQIRHAYNRYGSC
notes: 20-mer ending GSC; also called TRF26 Lead Peptide
- Kd [1]: ~100 µM
- Binding ΔG [2]: -5.56 kcal/mol
- Kd [2]: 85 µM
- Rank - non-prewash [3]: 596 rank
- Rank -- prewash [4]: 436 rank

B2: TBPL025 (peptide)
peptide: GHKVVPQRQMRHAYNRNGSC
notes: Clone from mRNA display on a doped TRF26 library
- Kd [5]: 150 µM

B4: BP2 variant EGEITEGKKSKLGSC (peptide)
peptide: EGEITEGKKSKLGSC
notes: as for B6
- Fold Enhancement [6]: 11.1 fold

B5: BP2 variant EGEITEGKKSKRGSC (peptide)
peptide: EGEITEGKKSKRGSC
notes: as for B6
- Fold Enhancement [6]: 10.5 fold

B8: BP2 variant EGEWTEGKKSKGGSC (peptide)
peptide: EGEWTEGKKSKGGSC
notes: as for B6
- Fold Enhancement [6]: 11.1 fold

B10: BP2 variant EGEWTEGKKSKEGSC (peptide)
peptide: EGEWTEGKKSKEGSC
notes: as for B6
- Fold Enhancement [6]: 10.7 fold

B11: BP2 variant EGEITEGKKSKGGSC (peptide)
peptide: EGEITEGKKSKGGSC
notes: as for B6
- Fold Enhancement [6]: 10.8 fold

B13: BP2 variant EGEDTEGKKSKLGSC (peptide)
peptide: EGEDTEGKKSKLGSC
notes: as for B6
- Fold Enhancement [6]: 10.4 fold

B14: BP2 variant EGEDTEGKKSKRGSC (peptide)
peptide: EGEDTEGKKSKRGSC
notes: as for B6
- Fold Enhancement [6]: 10.4 fold

B16: BP2 variant EGEDTEGKKSKEGSC (peptide)
peptide: EGEDTEGKKSKEGSC
notes: as for B6
- Fold Enhancement [6]: 10.1 fold

B17: BP2 variant EGEKTEGKKSKEGSC (peptide)
peptide: EGEKTEGKKSKEGSC
notes: as for B6
- Fold Enhancement [6]: 9.7 fold

B20: BP2 variant EGEITEGKKSKEGSC (peptide)
peptide: EGEITEGKKSKEGSC
notes: as for B6
- Fold Enhancement [6]: 10.9 fold

B23: BP2 variant EGEKTEGKKSKGGSC (peptide)
peptide: EGEKTEGKKSKGGSC
notes: as for B6
- Fold Enhancement [6]: 9.24 fold

B26: BP2 variant EGEITEGKKSKIGSC (peptide)
peptide: EGEITEGKKSKIGSC
notes: as for B6
- Fold Enhancement [6]: 11.3 fold

B27: BP2 variant EGEITEGKGSKKGSC (peptide)
peptide: EGEITEGKGSKKGSC
notes: as for B6
- Fold Enhancement [6]: 9.87 fold

Binder: HAYKGPGDMRRFNHSGMGSC (20-mer ending GSC) [TRF22]
- Rank - non-prewash [3]: 711 rank
- Rank -- prewash [4]: 61 rank

Binder: RFQLTQHYAQFWGHYTWGSC (20-mer ending GSC) [TRF28]
- Rank - non-prewash [3]: 601 rank
- Rank -- prewash [4]: 712 rank

Binder: QYHHFMNLKRQGRAQAYGSC (20-mer ending GSC) [TRF21]
- Kd [1]: ~60 µM
- Rank - non-prewash [3]: 84 rank
- Rank -- prewash [4]: 5 rank

Binder: FRGWAHIFFGPHVIYRGGSC (20-mer ending GSC) [TRF23]
- Kd [1]: ~50 µM
- Rank - non-prewash [3]: 2720 rank
- Rank -- prewash [4]: 2090 rank

Binder: GQTQFAMHRFQQWYKIKGSC (20-mer ending GSC) [TRF20]
- Rank - non-prewash [3]: 18 rank
- Rank -- prewash [4]: 289 rank

Binder: FERSYLKMPWSFLQSRQGSC [TNF1 D4S+P5Y+M7K triple mutant]
- Kd [7]: 14 µM
- Observed Binding ΔG [7]: -6.63 kcal/mol
- Kd Fold-Change Relative to Lead [8]: 11 fold

Binder: FERYPLMMPWSFLQSRQGSC [TNF1 D4Y point-mutant]
- Binding ΔG [9]: -5.95 kcal/mol
- Kd [9]: 44 µM
- Component Binding ΔG Contribution [10]: -0.74 kcal/mol
- fold enhancement in SPR binding response relative to TNF1 [11]: ≥ 15 fold
- Kd Fold-Change Relative to Lead [12]: 3.6 fold

Binder: FERDYLMMPWSFLQSRQGSC [TNF1 P5Y point-mutant]
- Binding ΔG [9]: -5.79 kcal/mol
- Kd [9]: 58 µM
- Component Binding ΔG Contribution [10]: -0.58 kcal/mol
- fold enhancement in SPR binding response relative to TNF1 [11]: ≥ 15 fold
- Kd Fold-Change Relative to Lead [12]: 2.7 fold

Binder: FERYPLKMPWSFLQSRQGSC [TNF1 D4Y+M7K double mutant]
- Kd [7]: 17 µM
- Observed Binding ΔG [7]: -6.54 kcal/mol
- Kd Fold-Change Relative to Lead [8]: 9.4 fold

Binder: FERDYLKMPWSFLQSRQGSC [TNF1 P5Y+M7K double mutant]
- Kd [7]: 27 µM
- Observed Binding ΔG [7]: -6.24 kcal/mol
- Kd Fold-Change Relative to Lead [8]: 5.8 fold

Binder: FERDPLKMPWSFLQSRQGSC [TNF1 M7K point-mutant]
- Binding ΔG [9]: -5.93 kcal/mol
- Kd [9]: 57 µM
- Component Binding ΔG Contribution [10]: -0.72 kcal/mol
- fold enhancement in SPR binding response relative to TNF1 [11]: ≥ 15 fold
- Kd Fold-Change Relative to Lead [12]: 2.8 fold

Binder: FERDYLMMPWKFLQSRQGSC [TNF1 P5Y+S11K double mutant]
- Kd [7]: 24 µM
- Observed Binding ΔG [7]: -6.63 kcal/mol
- Kd Fold-Change Relative to Lead [8]: 6.6 fold

Binder: FERDPLMMPWKFLQSRQGSC [TNF1 S11K point-mutant]
- Binding ΔG [9]: -6.03 kcal/mol
- Kd [9]: 40 µM
- Component Binding ΔG Contribution [10]: -0.82 kcal/mol
- fold enhancement in SPR binding response relative to TNF1 [11]: ≥ 15 fold
- Kd Fold-Change Relative to Lead [12]: 3.9 fold

B28: TRF19 (peptide)
peptide: KEDNPGYSSEQDYNKLDGSC
notes: 20-mer ending GSC; on arrays attached by the C-terminal Cys
- Kd [1]: ~150 µM
- Rank - non-prewash [3]: 5010 rank
- Rank -- prewash [4]: 9600 rank

B29: BP1 on dsDNA (peptide)
affinity element BP1: GTEKGTSGWLKTGSC
modifications: C-terminal Cys joined through SMCC to the DNA linker
notes: also called BP1 alone conjugated to the double-stranded DNA linker
- Kd [13]: 482 nM
